The record followed here is patent US11781164B2, “Demethylation of reticuline and derivatives thereof with fungal cytochrome P450” (priority 2017, dated 2023).

B1: CYPDN7: cytochrome P450 homolog I1CBZ0 from Rhizopus delemar, codon-optimized (protein)
chain: MALEGALPLFQKRSKSSYIVAAILLITVKQIYSFFRVPTNLRHLPCVSFFAMAKSLLTCEPPYNRFKRITFPAIQEGNGFYVSKIPTGWTVYVANPVAAKQLLLKSNNFPKSHYGLDTIGEKSTAVQFVGRDNVVLSNGEIWKKQRKIMNPVFHRSMPIKTVASLVPLLFSAIEEANGRIMITPKMKDFTLDALGLTIFDFDFKALQGDPDNWTSIYRLITRSIFDPISYVFCALEPLLVYVYPKRRRSVDAVAKINAKFDQVISKKREELQNGIFSNKPDNEKDLVTLMLEAGMQEDVSITNEELRHNMAVLFLAGHDSTSNTLSFCLYHLAKNKRAQQKLREEIINILGDDDIDIVPSLEELKQMKYMNMVIKETLRLGMPLDLLTPRKTVEDTFVADTFIPKDTVIAVDAGALHRDPRSWKDPDEFVPERFEDDGEQNSHEGLTWVPFSNGTRQCIGMNFSLMEQRLTLTMLLRKYEVDLPKDSIHYDHIIYEQPSYVCPESLELIFTKRY
modifications: Rhizopus delemar
B2: CYPDN34: cytochrome P450 homolog A0A068SBP8 from Lichtheimia corymbifera, codon-optimized (protein, listed as Lichtheimia corymbifera)
chain: MYKAFLDNGIVSSIISTLDNKDISVFLNDPNHAKTRSVALVSFCTVIAAYALSRSRSHSKDKDTPMVPYTWPLIGSSREYRKDPEAFIKKWSSELGDVYKVHLFGRIQTVVSGKHVYCLQKDFDFQQGMSKTFDIWLLLDAPLGGRFTLDKIRHATIKFTRTKMLTNTPCVVKQLIAAEHEMIGDAQTPSEIANLYPLMEHLVAIASATNFVGPGLTKDKDLVETYKHLAVDVGSELGDGNEFLEAFPWISRLRMWYLGKYGNSVDKHRKRLLRAMKPIIDERLAAAENGIENPQDFIQDIIEESEITSGDPDKYILAVRWILVMIASAGHTTTENTTIILYRILQHPEVIDELLEEQRQVLEKHHGPDVKDNEDLATLFTGEVIKDLVKLDSVCRETMRLRSFYIDLPHTYVGKSPLALTNTCTIKPGEDVLLNMWLNHNRTAMQYDGLGDYNEFKPFRFVGLDRSSTKLGGDFLLFGLGTHACPGRWFAMHQTKTILSMLLRRYQITPQETIVFPIGNRSHVPSGKVTFQKRQ
B3: CYPDN6: cytochrome P450 homolog A0A0B7NKC0 from Parasitella parasitica, codon-optimized (protein, listed as Parasitella parasitica)
chain: MAVLCLVLERIYASYAVPPSYLRHYPKVSLFDMLKSFYIKESVASRNKRLIAPLTNAGHGFYVCRIPLNWTIYVTDPLAAKTLLLKSENFPKNKAIFTALGDSSPVIKFMGKENVAMSNGEEWKKQRKIMNPAFHRSQPVKTFGNVMPDLFALIDQDPERVFITPKMKSFALDALGLSAFGFDFQSLKGDPEGWTRKYNVVISTLFNPFVNIFASLDFLVKYISPERRRVIKATDEFNSMLGELADKRRQEILDGEKKNIPENEKDLLTLMIEADIRDNIKTTTTELRHNMAIFFLAGHDSTANTLSLCLYNLAKHKHVQKKARQEVLAILGDEPLDVIPTAEDLKKLDYVNMVIKENLRRNGPADNLMSRDTQQDMNLNGTIIPKGSKVSVNVAAIHLNPKIWHDPENFIPERFEQGGEFEQHDGFTWIPFSNGSRQCLGLNFSLTEQRVVLCMILKRYEIDIPKDSIHYNEIVFDGAFTFAPQSLELSFKRRY
B4: CYPDN5: cytochrome P450 homolog A0A1X0RYU8 from Rhizopus microsporus, codon-optimized (protein, listed as Rhizopus microsporus)
chain: MELTEIAIETYHRALDKLVPILQKRSKRSYIGVAVALVVLERIYSFFRVPKSIRHIPAVPYFAMAKSFLTSEAPSSRHQRIVLPVIEKGNGIYVNKLPLEWTVNVATPTSAKHVLLKSEIYPKSESFLKLLGPQSPAVLFLGGKNVGFVNGDAWRKQRKIMNPAFHRSMPIQTMASVMPDFFSAIDKYGDEGIPISTIMRDFTLDVLGHTAFGFDFKALKGDPDNWTRTYHIINNALFNPTANMLTSLNPILSIISPERRRILEAIKKLNGMLEAMIKQKRQEVQSNAQAHAPENEKDLLTLMLEAQQRGEGLATDEELKHNVSGFFLAGHDTTSETLSFYFYNIAKNKDVQRKLREELNAVLGDKPVDVIPTLEQLKSMEYLNCTIKENLRLNGPADNVLPRVATEDMVVDGTPIPKGTVVNVDIHAIHHDTRYWKDPYKFVPERFLPGGEHDSHSGMTWLPFGNGARQCLGMNFSLAEQRLVIAMTVRKYDIEVPKDSIHYDHPILESSKTKAPASLKLIFRKRY
B5: CYPDN35: cytochrome P450 homolog A0A1X2GSL0 from Hesseltinella vesiculosa, codon-optimized (protein, listed as Hesseltinella vesiculosa)
chain: MLTQYLQFAADRLGQKKTLDQLQAVVTSKQGVVGITTAVALIALANHFRSPKIDRGCPQVEGKGWFGYATEEFRENPGKFLSEWHEKLGPVYGVKIFGHYATVVSGPYVREVFLDDRFSFIAAITKLFDPNLMTDSGHSSEQTAKNAADSIKRFLSPNLKHYTPRVIEHLNLGIEDWCGEVPAEGIEIENAFPFLQHLVARASASVFVGIELAKNEELVDSFQNMVSNISSGLKPKPWLEYFPSLTKLGMYMIGKTNPAVKRHRTQMANALRPEVDRRLKAMASNDTNWDRPDDMLQHILESYPAPEGLDVITYLINWMTQLIFAALHTTSENGKVVLYRLLQHPEVMEELYAEQNEVLAAAGYDESAGPEVFDREMLNKFVKLDSAVREACRLKNEFVGLPHENTTDKTLTLSNGAVILPGEFVYINQFVNHRDPELQAAIDDVHQFKPFRFVGTDHNAAKVSEGFVFFGMGRHACPGRWFAIQEIKTIVSLLLRKYKVEPIDPIVFSNQERDAFPIGPCRIRLTPRKAL
B6: CYPDN4: cytochrome P450 homolog I1CCX6 from Rhizopus delemar, codon-optimized (protein)
chain: MVKSFLKAESPTDRYKRIIHPVASKGNGFYVSKVPFLWAVYVTNPVVAKQVLLKSDIFPKNHAVFHQIGKDSPFTQFLGLDNVALSNGDVWKKQRKVMNPAFHRSLPIKTMASVVNTLFSVIDNSDGPVLITSAMQNFTLDVLGLAIFGFEFKALQGDPDNWTKTYKTVIESLFDPVMNVFATFDTLLTWVYPKRRECSVAISKMNLKFDELAKQKRAEVKSGAYANVPDHDKDLLTLMLEAMEKGEALTSQDELRHNIAVFFLAGHGTTAHTLSFCFYHLAKNKHIQRKLREEIISVLGDEPVDIVPSLEQMKHMKYMNLVIKENLRMNTPADTLFTRDTVEDINLAGHIIPKDTAISIDINAIHHDPKYWHNPEHFIPERFAEGGEQESHEGLTWLPFSNGSRQCIGMNFSLAEQRLVLAMLVRKYEIDIPKDSIHYERILFDRPGNIAPLSLGLTFTKRY
modifications: Rhizopus delemar
B7: CPR_DN5866_c0_g1_Cd9: native cytochrome P450 reductase clone from T. piriforme, day 9 cDNA (pEV31725) (protein)
chain: MAQSSPALLDSLDIVFLGTIGLGTIAWFARRQIAERIFGSKDDANKNVGNGNAPTAPKRERNFVKVMQEQGRKVIFFYGSQTGTAEDYASRLAKECSQKYGVSCMTADIELYDLTYLDTVPEDFLVFFIMATYGEGEPTDNAVDFWEQLTEEEPQFSEGDTLGNLRYVVFGLGNKTYEHYNEVARRMDKLLTKLGAKRIGERGEGDDDASLEEDFLAWQDSMWPAFCDALGVDESNGSSGPRQAMYAVEELEGQEAVYLGELGEKPKEGVKVVYDAKRPYNAPLVSQDLFKNTDRHCLHIDIDVSDSNLSYQTGDHIAIWPTNSDDEVARLASLLGLTDKLDTSVMVKAIDSTASKQYPFPVPATYRSIFRHYLDICAPASRQTLMSLVEYAPTEASKEALRLLSKDKDEYRLKVGEAVRNLGEVLELAAGADARPGLFSTVPFDLIVESVSRLQPRYYSISSSAKESPKVIAVTAVTLTYNPDPTPERTVYGVNTNYLWQIHAAKHNVNDGQRYPTYDLAGPRNALQGAKVPVHIRRSQFKLPRNPTVPVIMVGPGTGVAPFRGFVRERAAQKTDGKPVGPTLLFFGCRNSQQDFLYKDEWPELFATLGDESRIVTAFSRETPQKVYVQHRLQENGEELWNLLQKGAYIYVCGDAKNMARDVNQTFVNFAIEFGGQTEEKAHDYVKNLRNSGRYQEDVWS
modifications: Thamnostylum piriforme
B8: Cel_CPR_co: codon-optimized cytochrome P450 reductase from Cunninghamella elegans (protein)
chain: MAQQTPAVIDTLDLILLGSIGLGTIAWFTRRQLSERLFGTGQSNATPKPTTPQAPKRERNFVKVMEQQGRKVIFFYGSQTGTAEDFASRLAKQCSQKYGVSCMTADIEMYDLSYLDTLSEDSLVCFVMATYGEGEPTDNAVDFWEQFITDESPVFSEGGETLENLRYLMFGLGNKTYEHYNAVARILDKKLTGLGAKRIGERGEGDDDGSLEEDFLAWQESMWPTFCDALGVDENNAQQGPRQASYSVDELKEEYKNDDVYFGELGTKSKDSSRVVYDAKRPYNAPITTRELFNSSERHCLHVDIDISGTNLSYQTGDHVAMWPTNNEDEVLRLANILGLQDKLDNVISVKAIDPAAPKQHPFPVPTTYRAIFRHYIDICAPASRQSLMSFVEFAPTDSAKDLLKLLATDKDEYRLKVGEAVRNLGEVLELVSGNDKDTQPGSFTSVPFDLIVETIPRLQPRYYSISSSSKENSSIISATCVTLAYQPDPTPDRTVYGVNTNFLYRIHTQSSDNDIQGLPKYDLAGPRKAFLNEQGQSHKLPIHIRRSQFKLPRNTSCPVIMIGPGTGVAPFRGFVRERALQKKEGKSVGPTVLFFGNRHSEHDFLYSDEWPELFNTLGDDSKLITAFSRETEHKVYVQHRLEENGKDIWQLLEKGAYIYVCGDARNMARDVNQTFVNLAMEYGEKTEQKALDYVKSLRNTGRYQEDVWS
modifications: codon-optimized; Cunninghamella elegans

The subject of the first data set is thebaine. Kind of data set: Demethylation of thebaine by new cytochrome P450 fungal and plant homologs co-expressed with CPRs in S. cerevisiae. Particulars: 0.5 mM thebaine, SC or DELFT media pH 7, 72 h, 30° C.; co-expressed with Cel_CPR_co, Tp_CPR_5866, Tp_CPR_DN10898 or POR1.
With B1, the Northebaine production entry is listed as “+”.
The same measure, in the same setting: with B2 the entry was “+”; with B3, “+”; with B4, “+”.
Regarding B5, the Northebaine production entry is reported as “+”.
As for B6, the Northebaine production entry was “−”.

Another data set deals with thebaine. Put plainly: Bioconversion of thebaine (N-demethylation to northebaine) by S. cerevisiae expressing cytochrome P450s and CPRs, LC-MS. Particulars: 0.1 mM thebaine, 0.1 M potassium phosphate buffer pH 7, 72 h, 30° C.
In the case of B7, the “support of N-demethylase activity of P450_DN15259_c0_g1_i7_A by CPR (northebaine)” value is given as “yielded more northebaine”.
Take B8: the “support of N-demethylase activity of P450_DN15259_c0_g1_i7_A by CPR (northebaine)” value is “found to support N-demethylase activity”.
